Our source for the stoichiometry N values is paper PMC8692893.

Where “and” joins values, the source holds several entries; their conditions need not be identical. Equal values may be shown once.

Assay [1] concerns the target immunoglobulin new antigen receptor (IgNAR), secretory, in bamboo shark plasma (Chiloscyllium plagiosum (endogenous in plasma)). As to the kind of experiment: non-reducing SDS-PAGE and SDS-agarose gel electrophoresis with Western blot; 1 µl plasma heated at 65°C for 10 min in SDS-loading buffer without reducing agents; 5% SDS-PAGE; 1.5% agarose gel with 0.1% SDS in the running buffer for plasma proteins larger than 300 kDa; blots probed with anti-IgNAR pAb or anti-IgM [Z69]; multimers counted in Ig monomers by molecular weight. On the technique in general: In western blotting, separated proteins are transferred to a membrane and probed.

Assay [2] deals with IgW in bamboo shark plasma (Chiloscyllium plagiosum (endogenous in plasma)). As to the kind of experiment: non-reducing gel electrophoresis with Western blot (data not shown); IgW multimers in plasma, data not shown; anti-IgW [V43].
The target of assay [3] is IgM in bamboo shark plasma (Chiloscyllium plagiosum (endogenous in plasma)). As to the kind of experiment: non-reducing SDS-PAGE and SDS-agarose gel electrophoresis with Western blot; 1 µl plasma heated at 65°C for 10 min in SDS-loading buffer without reducing agents; 5% SDS-PAGE; 1.5% agarose gel with 0.1% SDS in the running buffer for plasma proteins larger than 300 kDa; blots probed with anti-IgNAR pAb or anti-IgM [Z69]; multimers counted in Ig monomers by molecular weight.

As usually defined, the stoichiometry N is the number of molecules, sites or subunits per partner or assembly.

On to “immunoglobulin new antigen receptor (IgNAR), secretory, in bamboo shark plasma (natural protein)”, for which the stoichiometry N in assay [1] is 3 and 4 and 5.

Turning to “IgW in bamboo shark plasma (natural protein)”, the stoichiometry N in assay [2] was 5 and 2.

In the case of “IgM in bamboo shark plasma (natural protein)”, the stoichiometry N in assay [3] was 5.
